The target in experiment [1] is C11+C661-SecA (Escherichia coli) (UniProt P10408). In words: cross-linking.
The target in experiment [2] is C403-SecA (Escherichia coli) (UniProt P10408). The experiment in a line: cross-linking.

By stoichiometry N is commonly meant the number of molecules, sites or subunits per partner or assembly. In turn, “C11+C661-SecA (from UniProt P10408 1-901) (enzyme)” came in with a stoichiometry N in experiment [1] of 2.

The substance “C403-SecA (from UniProt P10408 1-901) (enzyme)” gave a stoichiometry N in experiment [2] of 2.
